Target: T1, Bbc1, P47068
T1 sequence (P47068 1-78, looked up): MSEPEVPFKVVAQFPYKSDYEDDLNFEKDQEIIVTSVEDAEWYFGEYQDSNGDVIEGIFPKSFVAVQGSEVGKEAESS
Assay: SPOT array
Conditions: median of control spots 796

SPOT intensity | Binder
8 | SSAAPPPPPRRATPE
14 | APPPPPRRATPEKKP
0 | EQEEIAPSLPSRNSI
0 | EAEEAAPQLPSRSSA
4 | LASNSPPVYPKRIRH
34 | QGYPRQPQRPQRYHP

Target: T2, Sla1-3, P32790
T2 sequence (P32790 344-424, looked up): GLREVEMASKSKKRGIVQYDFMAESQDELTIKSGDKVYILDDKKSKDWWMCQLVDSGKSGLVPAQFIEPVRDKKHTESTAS
Assay: SPOT array
Conditions: median of control spots 5475

SPOT intensity | Binder
0 | SSAAPPPPPRRATPE
0 | APPPPPRRATPEKKP
0 | EQEEIAPSLPSRNSI
2 | EAEEAAPQLPSRSSA
0 | LASNSPPVYPKRIRH
0 | QGYPRQPQRPQRYHP

Target: T3, Boi2, P39969
T3 sequence (P39969 32-116, looked up): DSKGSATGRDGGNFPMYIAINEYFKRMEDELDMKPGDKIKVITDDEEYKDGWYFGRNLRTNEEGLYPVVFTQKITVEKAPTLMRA
Assay: SPOT array
Conditions: median of control spots 1161

SPOT intensity | Binder
0 | SSAAPPPPPRRATPE
1 | APPPPPRRATPEKKP
1 | EQEEIAPSLPSRNSI
1 | EAEEAAPQLPSRSSA
0 | LASNSPPVYPKRIRH
0 | QGYPRQPQRPQRYHP

Target: GST
Assay: SPOT array
Conditions: median of control spots 978

SPOT intensity | Binder
1 | SSAAPPPPPRRATPE
1 | APPPPPRRATPEKKP
2 | EQEEIAPSLPSRNSI
0 | EAEEAAPQLPSRSSA
0 | LASNSPPVYPKRIRH
1 | QGYPRQPQRPQRYHP

Target: T4, Lsb4, P32793
T4 sequence (P32793 402-468, looked up): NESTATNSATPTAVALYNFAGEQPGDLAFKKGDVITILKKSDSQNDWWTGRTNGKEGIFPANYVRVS
Assay: SPOT array
Conditions: median of control spots 397

SPOT intensity | Binder
965 | SSAAPPPPPRRATPE
424 | APPPPPRRATPEKKP
517 | EQEEIAPSLPSRNSI
529 | EAEEAAPQLPSRSSA
107 | LASNSPPVYPKRIRH
16 | QGYPRQPQRPQRYHP

Target: T5, Sla1-2, P32790
T5 sequence (P32790 60-140, looked up): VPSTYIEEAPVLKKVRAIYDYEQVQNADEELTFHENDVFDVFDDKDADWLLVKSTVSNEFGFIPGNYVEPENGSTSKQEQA
Assay: SPOT array
Conditions: median of control spots 712

SPOT intensity | Binder
0 | SSAAPPPPPRRATPE
0 | APPPPPRRATPEKKP
0 | EQEEIAPSLPSRNSI
0 | EAEEAAPQLPSRSSA
0 | LASNSPPVYPKRIRH
0 | QGYPRQPQRPQRYHP

Target: Rvs167, P39743
Sequence (P39743 419-482): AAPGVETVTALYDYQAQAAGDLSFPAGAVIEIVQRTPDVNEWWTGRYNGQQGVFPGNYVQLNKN
Assay: SPOT array
Conditions: median of control spots 2707

SPOT intensity | Binder
1790 | SSAAPPPPPRRATPE
525 | APPPPPRRATPEKKP
31 | EQEEIAPSLPSRNSI
75 | EAEEAAPQLPSRSSA
0 | LASNSPPVYPKRIRH
0 | QGYPRQPQRPQRYHP

Target: T6, Abp1, P15891
T6 sequence (P15891 535-592, looked up): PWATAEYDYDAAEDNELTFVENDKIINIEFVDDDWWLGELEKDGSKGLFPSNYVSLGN
Assay: SPOT array
Conditions: median of control spots 935

SPOT intensity | Binder
23 | SSAAPPPPPRRATPE
77 | APPPPPRRATPEKKP
0 | EQEEIAPSLPSRNSI
0 | EAEEAAPQLPSRSSA
68 | LASNSPPVYPKRIRH
9 | QGYPRQPQRPQRYHP

Target: T7, Bud14, P27637
T7 sequence (P27637 247-328, looked up): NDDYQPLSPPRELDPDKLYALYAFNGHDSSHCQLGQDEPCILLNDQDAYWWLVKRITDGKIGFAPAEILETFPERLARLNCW
Assay: SPOT array
Conditions: median of control spots 956

SPOT intensity | Binder
0 | SSAAPPPPPRRATPE
0 | APPPPPRRATPEKKP
0 | EQEEIAPSLPSRNSI
0 | EAEEAAPQLPSRSSA
0 | LASNSPPVYPKRIRH
1 | QGYPRQPQRPQRYHP

Target: T8, Nbp2, Q12163
T8 sequence (Q12163 103-180, looked up): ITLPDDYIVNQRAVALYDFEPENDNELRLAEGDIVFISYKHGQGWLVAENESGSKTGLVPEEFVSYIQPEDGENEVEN
Assay: SPOT array
Conditions: median of control spots 357

SPOT intensity | Binder
0 | SSAAPPPPPRRATPE
0 | APPPPPRRATPEKKP
0 | EQEEIAPSLPSRNSI
0 | EAEEAAPQLPSRSSA
0 | LASNSPPVYPKRIRH
0 | QGYPRQPQRPQRYHP

Target: T9, Bzz1-1, P38822
T9 sequence (P38822 478-572, looked up): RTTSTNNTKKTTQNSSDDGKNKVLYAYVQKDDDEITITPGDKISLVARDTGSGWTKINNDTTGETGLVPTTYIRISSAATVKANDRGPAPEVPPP
Assay: SPOT array
Conditions: median of control spots 4446

SPOT intensity | Binder
0 | SSAAPPPPPRRATPE
1 | APPPPPRRATPEKKP
0 | EQEEIAPSLPSRNSI
2 | EAEEAAPQLPSRSSA
0 | LASNSPPVYPKRIRH
0 | QGYPRQPQRPQRYHP

Target: T10, Fus1, P11710
T10 sequence (P11710 432-512, looked up): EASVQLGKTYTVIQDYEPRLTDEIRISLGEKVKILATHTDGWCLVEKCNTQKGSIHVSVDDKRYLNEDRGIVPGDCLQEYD
Assay: SPOT array
Conditions: median of control spots 1200

SPOT intensity | Binder
0 | SSAAPPPPPRRATPE
0 | APPPPPRRATPEKKP
0 | EQEEIAPSLPSRNSI
1 | EAEEAAPQLPSRSSA
0 | LASNSPPVYPKRIRH
0 | QGYPRQPQRPQRYHP

Target: T11, Pin3, Q06449
T11 sequence (Q06449 53-122, looked up): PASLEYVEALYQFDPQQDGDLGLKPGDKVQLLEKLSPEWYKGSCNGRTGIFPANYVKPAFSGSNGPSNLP
Assay: SPOT array
Conditions: median of control spots 2171

SPOT intensity | Binder
5 | SSAAPPPPPRRATPE
8 | APPPPPRRATPEKKP
0 | EQEEIAPSLPSRNSI
2 | EAEEAAPQLPSRSSA
0 | LASNSPPVYPKRIRH
2 | QGYPRQPQRPQRYHP

Target: Bem1-2, P29366
Sequence (P29366 139-227): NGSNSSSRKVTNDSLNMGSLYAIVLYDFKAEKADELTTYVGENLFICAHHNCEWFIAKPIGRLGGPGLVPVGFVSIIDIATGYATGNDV
Assay: SPOT array
Conditions: median of control spots 4347

SPOT intensity | Binder
1 | SSAAPPPPPRRATPE
3 | APPPPPRRATPEKKP
1 | EQEEIAPSLPSRNSI
0 | EAEEAAPQLPSRSSA
0 | LASNSPPVYPKRIRH
1 | QGYPRQPQRPQRYHP

Target: T12, Lsb1, P53281
T12 sequence (P53281 45-122, looked up): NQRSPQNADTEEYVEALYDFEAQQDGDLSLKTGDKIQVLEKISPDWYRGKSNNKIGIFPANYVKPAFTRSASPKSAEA
Assay: SPOT array
Conditions: median of control spots 388

SPOT intensity | Binder
266 | SSAAPPPPPRRATPE
30 | APPPPPRRATPEKKP
20 | EQEEIAPSLPSRNSI
62 | EAEEAAPQLPSRSSA
0 | LASNSPPVYPKRIRH
1 | QGYPRQPQRPQRYHP

Target: T13, Hse1, P38753
T13 sequence (P38753 208-285, looked up): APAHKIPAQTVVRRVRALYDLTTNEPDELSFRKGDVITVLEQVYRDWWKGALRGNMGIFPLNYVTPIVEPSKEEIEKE
Assay: SPOT array
Conditions: median of control spots 1727

SPOT intensity | Binder
0 | SSAAPPPPPRRATPE
0 | APPPPPRRATPEKKP
0 | EQEEIAPSLPSRNSI
0 | EAEEAAPQLPSRSSA
1 | LASNSPPVYPKRIRH
3 | QGYPRQPQRPQRYHP

Target: T14, Boi1, P38041
T14 sequence (P38041 1-86, looked up): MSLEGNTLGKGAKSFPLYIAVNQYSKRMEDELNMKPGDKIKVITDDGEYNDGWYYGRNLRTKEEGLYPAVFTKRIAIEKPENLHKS
Assay: SPOT array
Conditions: median of control spots 1162

SPOT intensity | Binder
1 | SSAAPPPPPRRATPE
0 | APPPPPRRATPEKKP
0 | EQEEIAPSLPSRNSI
1 | EAEEAAPQLPSRSSA
0 | LASNSPPVYPKRIRH
0 | QGYPRQPQRPQRYHP

Target: Myo3, P36006
Assay: SPOT array
Conditions: median of control spots 468

SPOT intensity | Binder
99 | SSAAPPPPPRRATPE
92 | APPPPPRRATPEKKP
0 | EQEEIAPSLPSRNSI
0 | EAEEAAPQLPSRSSA
0 | LASNSPPVYPKRIRH
0 | QGYPRQPQRPQRYHP

Target: T15, Cdc25, P04821
T15 sequence (P04821 50-136, looked up): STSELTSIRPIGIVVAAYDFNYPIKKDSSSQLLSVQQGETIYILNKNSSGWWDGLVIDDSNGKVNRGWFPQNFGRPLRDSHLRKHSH
Assay: SPOT array
Conditions: median of control spots 969

SPOT intensity | Binder
2 | SSAAPPPPPRRATPE
3 | APPPPPRRATPEKKP
1 | EQEEIAPSLPSRNSI
2 | EAEEAAPQLPSRSSA
0 | LASNSPPVYPKRIRH
0 | QGYPRQPQRPQRYHP

Target: T16, Lsb3, P43603
T16 sequence (P43603 385-451, looked up): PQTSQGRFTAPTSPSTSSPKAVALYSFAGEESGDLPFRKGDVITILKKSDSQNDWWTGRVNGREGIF
Assay: SPOT array
Conditions: median of control spots 406

SPOT intensity | Binder
706 | SSAAPPPPPRRATPE
432 | APPPPPRRATPEKKP
998 | EQEEIAPSLPSRNSI
956 | EAEEAAPQLPSRSSA
167 | LASNSPPVYPKRIRH
46 | QGYPRQPQRPQRYHP

Target: T17, Pex13, P80667
T17 sequence (P80667 295-386, looked up): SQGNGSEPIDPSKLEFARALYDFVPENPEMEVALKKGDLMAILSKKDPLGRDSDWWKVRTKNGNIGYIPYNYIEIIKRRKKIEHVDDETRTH
Assay: SPOT array
Conditions: median of control spots 1341

SPOT intensity | Binder
58 | SSAAPPPPPRRATPE
68 | APPPPPRRATPEKKP
417 | EQEEIAPSLPSRNSI
6 | EAEEAAPQLPSRSSA
3 | LASNSPPVYPKRIRH
7 | QGYPRQPQRPQRYHP

Target: T18, Myo5, Q04439
T18 sequence (Q04439 1072-1160, looked up): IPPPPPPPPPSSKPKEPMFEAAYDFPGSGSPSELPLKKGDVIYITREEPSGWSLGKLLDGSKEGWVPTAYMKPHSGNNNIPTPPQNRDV
Assay: SPOT array
Conditions: median of control spots 471

SPOT intensity | Binder
18 | SSAAPPPPPRRATPE
14 | APPPPPRRATPEKKP
0 | EQEEIAPSLPSRNSI
0 | EAEEAAPQLPSRSSA
0 | LASNSPPVYPKRIRH
0 | QGYPRQPQRPQRYHP

Target: T19, Cyk3, Q07533
T19 sequence (Q07533 1-83, looked up): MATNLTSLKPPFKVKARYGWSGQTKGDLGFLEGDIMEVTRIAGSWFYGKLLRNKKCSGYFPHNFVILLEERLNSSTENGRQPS
Assay: SPOT array
Conditions: median of control spots 1451

SPOT intensity | Binder
0 | SSAAPPPPPRRATPE
1 | APPPPPRRATPEKKP
1 | EQEEIAPSLPSRNSI
0 | EAEEAAPQLPSRSSA
0 | LASNSPPVYPKRIRH
1 | QGYPRQPQRPQRYHP

Target: T20, Hof1, Q05080
T20 sequence (Q05080 590-669, looked up): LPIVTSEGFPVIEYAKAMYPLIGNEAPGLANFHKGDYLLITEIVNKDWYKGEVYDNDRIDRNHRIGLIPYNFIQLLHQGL
Assay: SPOT array
Conditions: median of control spots 4086

SPOT intensity | Binder
1 | SSAAPPPPPRRATPE
0 | APPPPPRRATPEKKP
2 | EQEEIAPSLPSRNSI
0 | EAEEAAPQLPSRSSA
1 | LASNSPPVYPKRIRH
3 | QGYPRQPQRPQRYHP

Target: T21, Bzz1-2, P38822
T21 sequence (P38822 568-633, looked up): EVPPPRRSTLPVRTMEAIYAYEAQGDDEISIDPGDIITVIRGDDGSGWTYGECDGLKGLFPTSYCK
Assay: SPOT array
Conditions: median of control spots 4538

SPOT intensity | Binder
1 | SSAAPPPPPRRATPE
0 | APPPPPRRATPEKKP
1 | EQEEIAPSLPSRNSI
2 | EAEEAAPQLPSRSSA
0 | LASNSPPVYPKRIRH
0 | QGYPRQPQRPQRYHP

Target: Bem1-1, P29366
Sequence (P29366 55-141): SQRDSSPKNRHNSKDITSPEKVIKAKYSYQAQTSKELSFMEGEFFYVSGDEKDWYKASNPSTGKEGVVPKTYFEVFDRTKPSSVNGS
Assay: SPOT array
Conditions: median of control spots 4282

SPOT intensity | Binder
1 | SSAAPPPPPRRATPE
0 | APPPPPRRATPEKKP
1 | EQEEIAPSLPSRNSI
0 | EAEEAAPQLPSRSSA
0 | LASNSPPVYPKRIRH
0 | QGYPRQPQRPQRYHP

Target: Sho1, P40073
Sequence (P40073 287-367): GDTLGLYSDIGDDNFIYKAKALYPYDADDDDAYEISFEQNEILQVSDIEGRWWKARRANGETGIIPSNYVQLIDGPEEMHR
Assay: SPOT array
Conditions: median of control spots 1148

SPOT intensity | Binder
3 | SSAAPPPPPRRATPE
21 | APPPPPRRATPEKKP
0 | EQEEIAPSLPSRNSI
0 | EAEEAAPQLPSRSSA
7 | LASNSPPVYPKRIRH
0 | QGYPRQPQRPQRYHP
